Values belong to the binder of their own block, whether it stands above or below them.
Experiments:
[1] = molecular target: T1, nerve growth factor (NGF) (UniProt P01138 122-241, limits assumed, iodinated (125I) where used as tracer); assay: NGF binding to immunoadhesin (competitive displacement, as in Example 4)
T1 construct: also called 125I-NGF; labelled NGF

[2] = molecular target: T2, trkB-IgG immunoadhesin (human trkB extracellular domain fused to human IgG-1 Fc) (human); assay: competitive displacement of iodinated BDNF from trkB-IgG by unlabelled BDNF
T2 construct: also called chimeras containing trkB

[3] = molecular target: T1, nerve growth factor (NGF); assay: saturation binding with 125I-NGF, immunoadhesin
[4] = molecular target: T3, trkA-IgG immunoadhesin (human trkA extracellular domain fused to human IgG-1 Fc) (human, UniProt P04629 33-408); assay: competitive displacement of iodinated NGF from trkA-IgG by unlabelled NT3
T3 construct: also called native trkA; chimeras containing trkA extracellular domain; not shown: human IgG-1 hinge-CH2-CH3 (aspartic acid 216 to residue 441)

[5] = molecular target: T2, trkB-IgG immunoadhesin (human trkB …); assay: competitive displacement of iodinated BDNF from trkB-IgG by unlabelled NT3

T2 sequence (Q16620 32-423): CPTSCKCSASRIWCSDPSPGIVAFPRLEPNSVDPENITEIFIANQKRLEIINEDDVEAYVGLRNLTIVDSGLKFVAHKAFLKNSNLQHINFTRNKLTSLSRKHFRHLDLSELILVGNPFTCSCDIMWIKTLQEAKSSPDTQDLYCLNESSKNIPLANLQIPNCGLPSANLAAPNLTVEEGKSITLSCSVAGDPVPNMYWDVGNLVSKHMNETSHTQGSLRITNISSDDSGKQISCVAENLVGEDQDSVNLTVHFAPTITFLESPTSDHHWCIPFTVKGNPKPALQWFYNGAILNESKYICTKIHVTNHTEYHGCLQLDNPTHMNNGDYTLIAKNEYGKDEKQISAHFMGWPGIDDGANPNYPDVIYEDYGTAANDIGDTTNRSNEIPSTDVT

B2: brain-derived neurotrophic factor (BDNF) (ligand, UniProt P23560 129-247, looked up)
chain: HSDPARRGELSVCDSISEWVTAADKKTAVDMSGGTVTVLEKVPVSKGQLKQYFYETKCNPMGYTKEGCRGIDKRHWNSQCRTTQSYVRALTMDSKKRIGWRFIRIDTSCVCTLTIKRGR
modifications: radiolabelled (iodinated) where used as tracer
notes: also called NT-2; labelled BDNF
IC50 [2]: 0.081 nM

B4: neurotrophin-3 (NT-3) (ligand, UniProt P20783 139-257, looked up)
chain: YAEHKSHRGEYSVCDSESLWVTDKSSAIDIRGHQVTVLGEIKTGNSPVKQYFYETRCKEARPVKNGCRGIDDKHWNSQCKTSQTYVRALTSENNKLVGWRWIRIDTSCVCALSRKIGRT
modifications: radiolabelled (iodinated) where used as tracer
notes: also called labelled NT3; cold NT3
IC50 [4]: 20 nM
IC50 [5]: 18 nM

Results, then the binder that gave them:

fold reduction of affinity for NGF relative to native trkA [1]: ~2 fold
B1: trkA variant ?4A immunoadhesin (deletion of Val193 to Val282 of trkA) (Fc fusion, not shown: a dimerising Fc or GST)
chain: AAPCPDACCPHGSSGLRCTRDGALDSLHHLPGAENLTELYIENQQHLQHLELRDLRGLGELRNLTIVKSGLRFVAPDAFHFTPRLSRLNLSFNALESLSWKTVQGLSLQELVLSGNPLHCSCALRWLQRWEEEGLGGVPEQKLQCHGQGPLAHMPNASCGSFPASVQLHTAVEMHHWCIPFSVDGQPAPSLRWLFNGSVLNETSFIFTEFLEPAANETVRHGCLRLNQPTHVNNGNYTLLAANPFGQASASIMAAFMDNPFEFNPEDPIPDTNSTSGDPV
notes: 'Mature' variant

Kd [3]: 0.0386 nM
B3: trkC variant s5A immunoadhesin (trkC Val297 to Thr420 replaced with trkA Ser277 to Val402) (Fc fusion, not shown: a dimerising Fc or GST)
chain: CPANCVCSKTEINCRRPDDGNLFPLLEGQDSGNSNGNANINITDISRNITSIHIENWRSLHTLNAVDMELYTGLQKLTIKNSGLRSIQPRAFAKNPHLRYINLSSNRLTTLSWQLFQTLSLRELQLEQNFFNCSCDIRWMQLWQEQGEAKLNSQNLYCINADGSQLPLFRMNISQCDLPEISVSHVNLTVREGDNAVITCNGSGSPLPDVDWIVTGLQSINTHQTNLNWTNVHAINLTLVNVTSEDNGFTLTCIAENVVGMSNASSVQVNVSFPASVQLHTAVEMHHWCIPFSVDGQPAPSLRWLFNGSVLNETSFIFTEFLEPAANETVRHGCLRLNQPTHVNNGNYTLLAANPFGQASASIMAAFMDNPFEFNPEDPIPDTNSTSGDPV
notes: also called s5A chimera
